Test results published in paper PMC5893644.

Assays:
[1] = target: BrYV P3a^P18L, 3xFlag- and GFP-tagged copies (Brassica yellows virus (BrYV-A)); assay: SDS-PAGE and western blot (dimer band under denaturing conditions); total protein of agroinfiltrated N. benthamiana leaves in 2x SDS-PAGE buffer, 100 °C 10 min, 12.5% SDS-PAGE; antisera to GFP or RFP
[2] = target: His.MBP-P3a^P18L fusion protein (Brassica yellows virus (BrYV-A)); assay: SDS-PAGE and western blot (dimer band under denaturing conditions); E. coli Rosetta (DE3) induced with 0.1 mM IPTG at 18 °C for 20 h; 12.5% SDS-PAGE; anti-MBP monoclonal antibody
[3] = target: P3a^P18L-RFP (Brassica yellows virus (BrYV-A)); assay: SDS-PAGE and western blot (dimer band under denaturing conditions); total protein of agroinfiltrated N. benthamiana leaves in 2x SDS-PAGE buffer, 100 °C 10 min, 12.5% SDS-PAGE; antisera to GFP or RFP

BrYV P3a^P18L, 3xFlag- and GFP-tagged copies (from UniProt A0A897TIH8 1-45) (natural protein)
stoichiometry N [1]: 2

His.MBP-P3a^P18L fusion protein (from UniProt A0A897TIH8 1-45) (natural protein)
stoichiometry N [2]: 2

P3a^P18L-RFP (from UniProt A0A897TIH8 1-45) (natural protein)
stoichiometry N [3]: 2
